According to patent US20130109846A1 (published 2013):

Tests used:
[1] = biological target: T1, recombinant human CD28/Fc Chimera (human, UniProt P10747 19-152); experiment: BIAcore, CM5 chip coated with 12500 RU of CD28-Fc
T1 construct: bought from R&D Systems; Fc part of the bought chimera not given

[2] = biological target: T2, human CD28 (human, UniProt P10747 19-220); experiment: cell-based or functional assay
[3] = biological target: T2, human CD28; experiment: cell-based or functional assay; remark: listed apart in the source
[4] = biological target: T2, human CD28; experiment: cell-based or functional assay; remark: listed apart in the source
[5] = biological target: T2, human CD28; experiment: cell-based or functional assay; remark: listed apart in the source

| Binder | binding result [1] | DC-MLR Assay (EC50 nM) [2] [nM] | Luciferase assay (EC50 nM) [2] [nM] | IFNγ (EC50 nM), DC-driven MLR [3] [nM] | IL-2 (EC50 nM), DC-driven MLR [3] [nM] | TNFα (EC50 nM), DC-driven MLR [3] [nM] | CD80 CHO (EC50 nM), T cell proliferation [4] [nM] | CD86 CHO (EC50 nM), T cell proliferation [4] [nM] | EC50 of T cell proliferation, Monocytes as APC [5] |
| --- | --- | --- | --- | --- | --- | --- | --- | --- | --- |
| DOM21-44 (other, VH dAb) VH: EVQLLESGGGLVQPGGSLRLSCAASGFTFARYTMVWVRQAPGKGLEWVSAIHFDGRTTYYADSVKGRFTISRDNSKNTLYLQMNSLRAEDTAVYYCAKNEWASLKHFDYWGQGTLVTVSS | binds | – | – | – | – | – | – | – | – |
| DOM21-27 (other, VK dAb) VL: DIQMTQSPSSLSASVGDRVTITCRASQSIGTGLRWYQQKPGKAPMLLIYRASILQSGVPSRFSGSGSGTDFTLTISSLQPEDFATYYCQQTTLQPFTFSQGTKVEIKR | binds | – | – | – | – | – | – | – | – |
| DOM21-28 (other, VK dAb) VL: DIQMTQSPSSLSASVGDRVTITCRASQSISHSLVWYQQKPGKAPKLLIYWASLLQSGVPSRFSGSGSGTDFTLTISSLQPEDFATYYCQQGMTTPFTFGQGTKVEIKR | binds | – | – | – | – | – | – | – | – |
| DOM21-38 (other, VH dAb) VH: EVQLLESGGGLVQPGGSLRLSCAASGFTFILYDMQWVRQAPGKGLEWVSRISANGHDTYYADSVKGRFTISRDNSKNTLYLQMNSLRAEDTAVYYCAKGPHYLFDYWGQGTLVTVSS | binds | – | – | – | – | – | – | – | – |
| 1h-239-891 (other) VL: DIQMTQSPSSLSASVGDRVTITCRASRPIWPFLEWYQQKPGKAPKLLIYFTSRLRHGVPSRFSGSGSGTDFTLTISSLQPEDFATYYCLQNVANPATFSQGTKVEIKR | – | 0.5 | 0.2 | 0.2 | 0.1 | 0.2 | 0.3 | 0.4 | – |
| 1h-239-891(D70C) 40K branched PEG (other, 40 kDa branched PEG; engineered cysteine D70C) VL: DIQMTQSPSSLSASVGDRVTITCRASRPIWPFLEWYQQKPGKAPKLLIYFTSRLRHGVPSRFSGSGSGTCFTLTISSLQPEDFATYYCLQNVANPATFSQGTKVEIKR | – | 2.3 | – | 2.5 | 1.5 | 1.7 | 0.4 | 0.4 | 10 |
| 1h-239-891(D70C) 30K linear PEG (other, 30 kDa linear PEG; engineered cysteine D70C) VL: DIQMTQSPSSLSASVGDRVTITCRASRPIWPFLEWYQQKPGKAPKLLIYFTSRLRHGVPSRFSGSGSGTCFTLTISSLQPEDFATYYCLQNVANPATFSQGTKVEIKR | – | 1.2 | – | 0.6 | 0.6 | 0.6 | 1 | 0.5 | – |
